Laboratory results taken from paper PMC11957791.

Target: SBW25 RimK (P. fluorescens SBW25) (UniProt C3KE61)
Chain of UniProt C3KE61 (C3KE61 whole entry): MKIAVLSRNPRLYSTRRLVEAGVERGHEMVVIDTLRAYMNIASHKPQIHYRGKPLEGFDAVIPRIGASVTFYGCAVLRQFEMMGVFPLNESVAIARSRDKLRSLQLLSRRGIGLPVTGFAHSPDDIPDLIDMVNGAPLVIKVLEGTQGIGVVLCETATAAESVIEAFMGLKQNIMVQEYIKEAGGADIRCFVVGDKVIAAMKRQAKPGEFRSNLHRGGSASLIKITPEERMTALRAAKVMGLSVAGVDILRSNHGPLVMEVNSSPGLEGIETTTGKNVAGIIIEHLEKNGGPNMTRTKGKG

In the case of SBW25 RimB (enzyme), the ATPase specific activity of SBW25 RimK (3.8 μM) with RimB (6.0 μM), linked PK/LDH assay; RimK only 47 nmol/min/mg RimK is reported as 196 nmol/min/mg.
